Key:
Assay in all cases: cell-based or functional assay
[1] = molecular target: IRS-1 phosphorylation domain (PTB peptide), 13 amino acid peptide including Y941 of insulin receptor substrate 1
[2] = molecular target: Akt kinase motif (AKM) peptide … of sensor AS1T
[3] = molecular target: non-phosphorylable Akt kinase motif … (alanine substitution) of sensor AS1A

Row | bioluminescence signal induction, split firefly IRS-1 sensor with (EAAAR)2 linker in CHO-IR cells implanted in nude mice, after insulin (fold induction) [1] | bioluminescence signal induction, split firefly IRS-1 sensor with (EAAAR)2 linker in CHO-IR cells implanted in nude mice, no insulin (fold induction) [1] | FL activity of AS1T in 293T cells treated with PDGF for 30 minutes, relative to carrier control [2] | complemented FL activity of 293T/AS1T xenografts in nude mice 6 hours after 30 mg/kg perifosine, relative to carrier control treated mice [2] | complemented FL activity of AS1T in BT474 cells treated with the PI-3K inhibitor LY294002 for 24 hours, relative to carrier control [2] | maximum induction of complemented FL activity of AS1T in response to LY294002 [2] | complemented FL activity of 293T/AS1A xenografts in nude mice 6 hours after 30 mg/kg perifosine, relative to carrier control treated mice [3] | complemented FL activity of untreated 293T/AS1A cells relative to untreated 293T/AS1T cells [3] | Substance
1 | 5 | 1.3 | – | – | – | – | – | – | SH2 domain of PI3 Kinase (substrate recognition domain) (from UniProt P27986 330-433)
2 | – | – | 60 % decrease | 60 % increase | 1.3 fold | 4 fold | 20 % decrease | 10 fold | yeast phosphothreonine FHA2 binding domain (from UniProt P22216 601-664)

— patent US20070275428A1
